Bridges are numbered along the chain shown (N, C = ends). Where no end group is shown, it is not given here. [ ]: non-standard residue; d: D form. The star is where a group is joined. Acetyl(2-(4-imidazolyl)) = O=C(Cc1c[nH]cn1)*; Aib = CC(C)(N)C(=O)O
T1: human GIP receptor (human, UniProt P48546 22-466)
T1 sequence (looked up): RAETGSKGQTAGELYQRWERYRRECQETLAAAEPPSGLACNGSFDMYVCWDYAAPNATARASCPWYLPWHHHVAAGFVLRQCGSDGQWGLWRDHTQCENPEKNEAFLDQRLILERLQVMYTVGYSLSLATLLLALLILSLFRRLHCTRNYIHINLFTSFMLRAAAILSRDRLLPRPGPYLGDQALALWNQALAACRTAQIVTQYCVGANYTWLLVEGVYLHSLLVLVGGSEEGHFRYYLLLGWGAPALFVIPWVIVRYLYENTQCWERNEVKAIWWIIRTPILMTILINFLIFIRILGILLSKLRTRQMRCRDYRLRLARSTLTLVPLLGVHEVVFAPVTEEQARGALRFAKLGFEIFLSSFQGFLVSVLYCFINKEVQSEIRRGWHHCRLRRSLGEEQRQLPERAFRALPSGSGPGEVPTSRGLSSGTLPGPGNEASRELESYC


Columns and labels:
Assay in all cases: cell-based or functional assay
human GLP-1 receptor = human GLP-1 receptor (human, UniProt P43220 24-463)
human GCG receptor = human GCG receptor (human, UniProt P47871 26-477)
human GIP receptor = target: T1, human GIP receptor

Chain of human GCG receptor (P47871 26-477): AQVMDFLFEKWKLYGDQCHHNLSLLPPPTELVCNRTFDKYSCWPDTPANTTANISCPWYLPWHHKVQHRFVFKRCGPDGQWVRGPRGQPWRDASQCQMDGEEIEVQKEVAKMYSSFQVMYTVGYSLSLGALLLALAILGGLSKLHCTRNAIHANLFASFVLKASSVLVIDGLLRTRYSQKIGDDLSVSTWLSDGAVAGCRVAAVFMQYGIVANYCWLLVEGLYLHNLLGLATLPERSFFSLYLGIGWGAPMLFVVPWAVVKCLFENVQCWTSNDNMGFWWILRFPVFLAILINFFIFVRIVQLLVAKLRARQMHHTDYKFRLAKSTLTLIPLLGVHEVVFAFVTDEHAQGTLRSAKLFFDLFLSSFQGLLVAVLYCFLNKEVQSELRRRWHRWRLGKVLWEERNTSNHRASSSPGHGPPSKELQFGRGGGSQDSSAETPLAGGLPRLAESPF

Binder	In vitro activity compared with native peptide (%) vs. GLP-1 (human GLP-1 receptor)	In vitro activity compared with native peptide (%) vs. Glucagon (human GCG receptor)	In vitro activity compared with native peptide (%) vs. GIP (human GIP receptor)
H[Aib]QGTFTSDVSKYLDGQAAQEFVAWLLAGC [Triple agonist of SEQ ID NO: 9]	32.1%	0.13%	< 0.1%
Y[Aib]QGTFTSDYSKYLDEKRAKEFVQWLLDHCPSSGQPPPS (bridge 16-20) [Triple agonist of SEQ ID NO: 96]	34.4%	195%	5.2%
Y[Aib]QGTFTSDYSKALDEKAAKEFVNWLLDQHPSSGQPPPSC (bridge 16-20) [Triple agonist of SEQ ID NO: 101]	23.2%	13.9%	40.1%
Y[Aib]QGTFTSDYSKALDEKAAKEFVNWLLDHHPSSGQPPPSC (bridge 16-20) [Triple agonist of SEQ ID NO: 98]	28.1%	8.2%	47.1%
Y[Aib]QGTFTSDYSKALDEKAAKDFVNWLLDHHPSSGQPPPSC (bridge 16-20) [Triple agonist of SEQ ID NO: 99]	20.9%	14.9%	57.7%
{Acetyl(2-(4-imidazolyl))}-[Aib]EGTFTSDYSIAMDEIHQKDFVNWLLAQKC (bridge 15-19) [Triple agonist of SEQ ID NO: 90]	7.4%	< 0.1%	< 0.1%
{Acetyl(2-(4-imidazolyl))}-GEGTFISDYSIQLDEIAVQDFVEWLLAQKPSSGAPPPSHG [Triple agonist of SEQ ID NO: 13]	< 0.1%	< 0.1%	< 0.1%
H[Aib]QGTFTSDVSSYLDGQAQKEFIAWLVKGC [Triple agonist of SEQ ID NO: 2]	5.9%	< 0.1%	< 0.1%
{Acetyl(2-(4-imidazolyl))}-[Aib]QGTFTSDYSIAMDEIHQKDFVNWLLNTC (bridge 15-19) [Triple agonist of SEQ ID NO: 87]	0.9%	< 0.1%	< 0.1%
Y[Aib]QGTFTSDYSKYLDEKRAKEFVQWLLCHHPSSGQPPPS (bridge 16-20) [Triple agonist of SEQ ID NO: 95]	2.1%	0.4%	< 0.1%
{Acetyl(2-(4-imidazolyl))}-[Aib]EGTFTSDYSIAMDEIHQKDFVDWLLAEKC (bridge 15-19) [Triple agonist of SEQ ID NO: 91]	31.9%	16.8%	0.3%
{Acetyl(2-(4-imidazolyl))}-[Aib]QGTFTSDYSIAMDEIHQKDFVNWLLAQC (bridge 15-19) [Triple agonist of SEQ ID NO: 85]	4.3%	< 0.1%	0.3%
{Acetyl(2-(4-imidazolyl))}-[Aib]QGTFTSDYSKYLDEKRQKEFVQWLLDTKC (bridge 15-19) [Triple agonist of SEQ ID NO: 89]	7.1%	0.7%	< 0.1%
{Acetyl(2-(4-imidazolyl))}-[Aib]QGTFTSDYSKYLDEKRQKEFVQWLLNTKC (bridge 15-19) [Triple agonist of SEQ ID NO: 88]	9.6%	0.3%	< 0.1%
Y[Aib]QGTFTSDYSKALDEKAAKDFVNWLLDQHPSSGQPPPSC (bridge 16-20) [Triple agonist of SEQ ID NO: 102]	23.3%	29.5%	58%
{Acetyl(2-(4-imidazolyl))}-[Aib]QGTFTSDYSKYLDEKRQKEFVQWLLDTC (bridge 15-19) [Triple agonist of SEQ ID NO: 82]	9.5%	1.1%	< 0.1%
{Acetyl(2-(4-imidazolyl))}-GEGTFISDLSKYMDEQAVQLFVEWLMAGGPSSGAPPPSHG [Triple agonist of SEQ ID NO: 12]	0.4%	< 0.1%	< 0.1%
{Acetyl(2-(4-imidazolyl))}-GQGTFTSDYSIQLDEIAVRDFVEWLKNGGPSSGAPPPSHG [Triple agonist of SEQ ID NO: 14]	28%	< 0.1%	< 0.1%
Y[Aib]QGTFTSDYSKYLDEKRAKEFVQWLLDCHPSSGQPPPS (bridge 16-20) [Triple agonist of SEQ ID NO: 97]	10.5%	62.8%	2.6%
{Acetyl(2-(4-imidazolyl))}-[Aib]QGTFTSDYSKYLDEKRQKEFVNWLLAQKC (bridge 15-19) [Triple agonist of SEQ ID NO: 93]	5.7%	0.3%	0.7%
Y[Aib]QGTFTSDYSKALDEKAAKEFVQWLLDQHPSSGQPPPSC (bridge 16-20) [Triple agonist of SEQ ID NO: 100]	42.2%	12.7%	118%
{Acetyl(2-(4-imidazolyl))}-GEGTFTSDLSKYLDSRRQQLFVQWLKAGGPSSGAPPPSHG [Triple agonist of SEQ ID NO: 11]	1.4%	< 0.1%	< 0.1%
H[Aib]QGTFTSDVSKYLDGQAAQEFVAWLLAGGGPSSGAPPPSC [Triple agonist of SEQ ID NO: 10]	46%	< 0.1%	< 0.1%
{Acetyl(2-(4-imidazolyl))}-[Aib]QGTFTSDYSIAMDEIHQKDFVNWLLNTKC (bridge 15-19) [Triple agonist of SEQ ID NO: 94]	0.5%	< 0.1%	< 0.1%
{Acetyl(2-(4-imidazolyl))}-[Aib]QGTFTSDYSKYLDEKRQKEFVNWLLAQC (bridge 15-19) [Triple agonist of SEQ ID NO: 86]	28.4%	0.4%	0.2%
{Acetyl(2-(4-imidazolyl))}-[Aib]EGTFTSDYSIAMDEIHQKDFVNWLLAQC (bridge 15-19) [Triple agonist of SEQ ID NO: 83]	47.3%	1.3%	0.4%
[Acetyl(2-(4-imidazolyl))][Aib]QGTFTSDYSIAMDEIHQKDFVNWLLAQKC (bridge 16-20) [Triple agonist of SEQ ID NO: 92]	0.8%	< 0.1%	0.4%
{Acetyl(2-(4-imidazolyl))}-[Aib]EGTFTSDYSIAMDEIHQKDFVDWLLAEC (bridge 15-19) [Triple agonist of SEQ ID NO: 84]	4.2%	< 0.1%	< 0.1%

From patent publication US20240024426A1, “HYPOTENSIVE PHARMACEUTICAL COMPOSITION COMPRISING TRIPLE ACTIVATOR HAVING ACTIVITY FOR ALL OF GLUCAGON, GLP-1, AND GIP RECEPTORS” (HANMI PHARM. CO., LTD., priority 2020, published 2024)
